Assay: yeast display, Sf9 membrane polyspecificity reagent, FACS + sequencing; frameworks hold sequencing errors
Outline: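 Galactose induction of a Saccharomyces cerevisiae BJ5465 synthetic nanobody display library ran 36–48 hours. The cells were then stained for 1 hour at 4 °C with 10% biotinylated, detergent-solubilized Sf9 membrane reagent, pulled down on streptavidin microbeads and FACS-sorted into low and high (top ~1%) gates on expression and reagent-binding fluorescence. Labels for polyreactivity follow the gate of origin.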

Sequence | polyreactivity (PSR sort gate)
QLQLVESGGGLVQAGGSLRLSCAASGFTIRRYAMGCYRQAPGKERELVAAITWSAGSTYYADSVKGRFTISRDNAKNTVYLQMNSLKPEDTAVYYCAARWTRWGADSGYYWGKGTQVTVSS | high polyreactivity
QVQLVESGRGLVQAGGTLRLSCAPYGRTFYPIAMAWYRQAPGKDRELVAAISYSGGSTYYADSVKGRFTISRDNAKNTVYLQMNRLKPEDTAVYDCAAAFSRDSRDLWGQGTQVTVSS | low polyreactivity
QVHLVESGGGLVQAGGSLRLSCAASGSIFKYNAMGWYRQSPGKERELVAAISSGGSTNYADSVKGRFTISRDNAKNTVYLQMNSLKPEDTAVYYCAKDRRRWYYTRDYWGQGTQVTVSS | low polyreactivity
QVQLVESGGGLVQAGGSLRLSCAASGSIFRQYAMGWYRQAPGKERELVAAIRRGTSTYYADSVKGRFTISRDNAKNTVYLQMNSLKPEDTAVYYCAKHQHYPHYQPYWSRYDYWGQGTQVTVSS | low polyreactivity
QVQLVESGGGLVQAGGSLRLSCAASGRIFGYNAMGWYRQAPGKERELVAAITTSGGSTYYADSVKGRFTISRDNAKNTVYLQMNSLKPEVTAVYYCAGDSLQVFYPYASDDYWGHGTQVTVSS | low polyreactivity
QVQLVESGGGLVQARGSLRLSCAASGSIFYNNALGWYRQAPGKERELVAAISGSGDSTYYADSVKGRFTISRENAKNTVYLQMNSLKPEDTAVYYCNATPYVLWWSDMDYWGQGTQVTVSS | high polyreactivity
QVQLVESGGGLLQAGGSLRLSCAASGFILNSYAMGWYRQAPGKERELVAAITRSGGNTFYADSVKGRFKISRDNAKNTVYLQMNSLQPEDTAVYYCYAYFTYWSQLYYWGQGTQVTVSS | high polyreactivity
QVQIVESGGGLVQAGGSLRLSCDASGSILLWNTMGWYRQAPGKERELVADSSLSASSTYYADSVKGRFTISRDNAQNTVYLELNSLKPEDTAVYFCAADEYSPDYGQGYDYWGEGTQVTVSS | low polyreactivity
QVQLVESGGGLVQAGGSLRLSCAASGITFYRNAMGWDRQAPGKERELVAAISSRGGRTYYADSVKGRFTISRDNAKNTVYVQMNSLKPEDTAVYYCAKGGKVGSTLEYDYWGQGTQVTVST | high polyreactivity
QVQLQGSGGGLVQAGVSLRLSCAASGYIFQNVPMGWNRHAPGKERELVAGIDNATSTNYADSVNGRFTISLDNAKNTVYLQMNSLKPEDTAVYYCAAAGQADNTLGYWGQGTQVTVSS | low polyreactivity
QVQLVESGGGLVQAGGSLRLSCAASGFTFNKYAMGWYRQEPGKERELVAAISVSGSRTYYADSVKGRFTISRDNAKNTFYLQMNSLKPEDTAVYYCAATHYSQVSDDYWGQGTQVTVSS | high polyreactivity
QVQLVESGGGLVQAGGSLRLSCAASGSTFYSYAMGWYRQAPGKERELVAAITSRGDRTYYADSVKGRFTISRDNAKNTVYLQMNSLKPEDTAVYYCAAEQSWQGYAYYYWGQGTQVTVSS | high polyreactivity
QVQLVESGGGLVQAGGSLRLSCAASGGTFVYALGWYRQAPGKERELVAAISARTTGTYYADSVKGRFTISRDNAKNTVYLQMNSLKPEDTAVYYCAAKSKLSRDLYSWGQGTQVTVSS | low polyreactivity
QVQLVESGGGLVQAGGSLRLSCAASGSIFRVYAMGWYRQAPGKERELVAVISIAGRTNYADSVKGRFTISRDNAKNTVYLQMNSLKPEDTAVYYCNAEWDLNHLYDSWGQGTQVTVSS | low polyreactivity
QVQLVESGGGLVQAGGSLRLSCAASGRTFLGYAMGWYRQAPGKERELVAAISWDGTSTYYADSVKGRFTISRDNAKNTVYLQMNSLKPEDTAVYDCAAQLTDYQSKTLSYDYWGQGTQVTVSS | low polyreactivity
QVQLVESGGGLVQAGGSLRLSCAASGRIFRFYAIGAYRQAPGKERELVAVISTGGSTNYADSVKGRFTISRDNAKNTVYLQMNSLKPEDTAVYYCAKRKQSWGPGYSYYSSQYSMDYWGQGTLVTVSS | high polyreactivity

Sequence | polyreactivity (PSR sort gate)
QVQLVESGGGLVQAGGSLRLSCAASGSIFRIYAMGWYRQAPGKERELVAAISFSTGSRTYYADSVKGRFTISRDNAKNTVYLQMNSLKPEDTAVYYCNAESYYDYNYWGQGNQVTVSS | low polyreactivity
QVQLVESGGGLVQAGGSLRLSCAASGRIFVGYVMGWYRQAPGKERELVAAISSGGRTYYADSVKGRFTISRDNAKNTVYLQMNSLKPEDTAVYYCAAKRGGYNKEYDYWGQGTQVTVSS | high polyreactivity
QVQLVESGGGLVQAGGSLRLSCAASGRTFVYNAMGWYRQAPGNERELVAAITSGGRTYYADSVKGRFTISRDNAKNTVYLQMNSLQPEDTAVYYCAKRFWFNTYAAHPAGFDYWGQGTQVTVSS | low polyreactivity
QVQLVESGGGLVQAGGSLRLSCAASGSTFVGYAMGWYRQAPGKERELVADIDSIGGSTYYADSVKGRFTISRDNAKNTVYLQMNSLKPEDTAVDYCAARRFDTALVLYDYWGQGTQVTVSS | low polyreactivity
QVQLVESGGGLVQAGGSLRLSCAASGIIFYEYTMGWYRQAPGKERELVARISLRGGNTYYADSVKGRFTISRDNAKNTVYLQMNSLKPEDTAVYYCNADLYRQYASRYHYWGQGTQVTVSS | high polyreactivity
QVQLVESGGGLVQAGGSLRLSCAASGRIVGRYAMAWYRQAPGKERELVAAISSGTSTNYADSVKGRFTISRDNAKNTVYLQMNSLKPEDTAVYYCAVVLYRHWWYDYWGKGTQVTVSS | high polyreactivity
QVQLVESCGGLVQARGSLRLSCAASGRTIDSYAMGWYRQAPGKERELVAAITSGVSTYYADSVKGRITISRDNATNTVYLQMNSLQPEDTSVYYCARKHAIWRGYDFWGQGTQVTVSS | low polyreactivity
QVQLVESGGGLVQAGGSLRLSCAASGRTFPVNGMGWYRQAPGKERELVAAITGGGSTNYADSVKGRFTITRDNAKNTVYLQMNSLKPEDTAVYYCAAGSYSRYLYSLYFDFDYWGQGTQVTVSS | low polyreactivity
QVQLVESGGGLVQAGGSHRLSCAASGFIFGINVMGWYRQAPGKERELVAAISGSGSSTYYADSVKGRFTISRDNAKNTVYLQMNSLKPEDTAVYYCAARSVSTLRFTSRKLRYDYWGQGTQVTVSS | high polyreactivity
QVQLVESGGGLVQAGVSLRLSCAASGRTFTSYPMGLYRQAPGKERELVAAISSRGGSTSYADSVKGRLTISRDNANNTVYLQMNSLKEEDTAVYYCARRIRQQRFGGNYWGQGTQVTVSS | high polyreactivity
QVQVVESGGGLVQAGGSLRLSCAPSGRIFLGNRMSWYRHAPGKERELVAAISKSGGTTYYADSVKGRFTISRDNAKNTVYLQMNSLKPEDTAVYYCAASRPRPPSSRRMDYWGQGTQVTVSS | high polyreactivity
QVQLVESGGGLGQAGGSLRLSCAASGYTFAGYAMGWYRPAPGKETELVAAISQSGGRTNYADSVKGRFTISRDNSKNTVYLQMNSLKPADTAVYYCAAEETSYTSEYWGQGTQVTVSS | high polyreactivity
QVQLVESGGGLVQAGGSLRLSCAASGFTFVYYVMGWYRQAPGKERELVAAITRRGGNTYYADSVKGRFTISRDNAKNTVYLQMNSLKPEDTAVYYCNAVLRYGHGPYQKGDYWGQGTQVTVSS | high polyreactivity
QVQLVESGGGLVQAGGSLRLSCAGSGRTSLAYAMGWYRQAPGKERELVAGITSGGNTNYADSVKGRFTISCDNAKNTVYLQMNSLKPEDTAVYYCNKKKRWQWYSESVLDYLGFYSWGQGTQVTVSS | low polyreactivity
QVQLVESGGGLVQAGGSLRLSCAASGSTFVSNAMGWYRPAPGKERELVAAINGSGGITYYADSVKGRFTISRDNAKNTVYLQMNSLKPEDTAVYYCAAEYDGPSTWVDYYYHYGYWGQGTQVTVSS | low polyreactivity

— the nanobody polyreactivity screen of Harvey et al. (2022)
